Marks after values point to notes of the source that are not given here.
B1: A009: house dust mite protein; SEQ ID NO: 43 (Der f), 44 (Der p), 307 (Blo t) (protein)
chain: VVIKVENLPEQCDYTQCPKWSKDDINVHLVAHTHDDVGWLKTVEQYYYGLKNDIQRAGVQYILDTMIEELIRNKDRRFIYVEIAFFWKWWQEQNEEQRMIVKELVRTGQLEFINGGWSMPDEAATHYNSLIDQSTWGLRQLNDTFGRCGHPKVTWQIDPFGHSKEMANLYAQMGYDALFFARQDYQDRENRMSNRTLEHVWQGSDDLGEIGDIFTGMMFSGYGPIEFNWDITNGPEDAVVDNPESEEYNVPDKIRRFVEKAKYFGQFYATNHFMFPMGTDFQYTDAHTWFKNLDKLINAVNKAGKGVRAFYSTPSCYAHALYEQNRTWTTKTDDFFPYASDEHAYWTGYFTSRPAIKRMERIGNNLLQACKQLDVLADNNGRFEMNLTKMREAMGVMQHHDAVTGTEKQHVAFNYAKMLDSAMLQCRHIINESYKKLLPKSSTSEHEFCPYLNISSCPTTEMGESRIIYLYNPLGHRLINHTVRLPIKNGYYYRIQDQNNQSVPSVLVPIPEFVQKIPGRKSVATKELVFRVPVIEPLGITTMYMYVDKNEQPNSAIEIKGENPDDNDDKSKWLVLTKNLIVEFYSNGTISRISIDKLHQSISISNEFRLYHGAGGTGRHSGAYIFRPNEQKTFPVTNKIKSTFFIDRKYHIVQEVHQQFDSSFVGQIIRMDKYNDNVEFDFVVGPIPVNDQIGKEIIASYKTDLENDETFYTDANGRQMLRRRWNYRPSWKYNVQEPISGNYYPVNSRIAIRDEKQSLQMTIMTDRSQGGSLSPEQINGSIDIMIHRRLLHDDYFGVGEALNEPGVDGHGLVIRGKHLLLLNSIKQSASEHRPLAQQMFMEPIISFTSIESNKQAEKQSNQYIGLNNDLPSNVHLLTLEQWHSKRYLLRLEHFYQSNEDTELSKPVKLSLRHLFKSFEIIAVEELTLGANQPISSLKNRLHYRYNRPLEQRQQQQSSLLLDDPKIEGENFDIHLSPMQIRTFLIDIKRN
B2: A010: house dust mite protein; SEQ ID NO: 41 (Der p), 42 (Der f), 308 (Blo t) (protein)
chain: DSLKCSSIRNEDRIDCNPDPPISKNVCEQRGCCWKTAGNDLKNLSSKVLPNLNVPYCYYGENYIGYKIEKHSKNLIQLKRNRSSGFARDIENINIEIHELNDKVIRLKFIDANKKRYEVPIPKLNLPSTTSSSSSNSRLYSVELDGSHLIVRRRETNQSIFDINLAYMVYSDQLIHVTSRLPSKYIYGLGEHRAPFRKNTNWKRYTQWTRDQYPVTDKALYGNHPFYLTVEDESPKKSASGVFLFNSNAMDIITQPSPAITFRTIGGILDFFVFFGPKPEDVISQYQNLIGLPAMPPFWSLGYQQCRYGYNNFTNLNTTYTRNRAVGIPMDVQWTDIDAFNSNNDFTYDHKRFKELPDFINNVLHPNGQKFIPMFDCGISSGEPAGSYKPFDSGVELDVFVKNSSNKIFRGKVWNGKSTVWPDFSHPNATEYWMDMFAEYHKTIAFDGAWLDMNEPSNFYNGEEHGCPESEIENPQYVPGMTDDSLTLRHKTLCMTARHYNDQLHYNLHNLYSLSMAMATNAALTKLNKRPFIISRATAPGHGHWAYHWNGDILSDWSSMRWTIPSILNFNMFGIPMVGADICGFGGNTAEELCIRWYQLGAFYSFARNHNDIHSIDQDPAALGESVIRAARSSLQYRYRFLAHLYTLFYHVHKNGGTVLRPMFFEFPHDEHTYEIETQFMWGDSVLIAPILYPNQTQHKIYLPKGTWYNRKVSFESQGQYITMNDSYDDIDYVFVRGGSIIPTQEPHDNTELMKTKDFLLIVALDNQTSYAKGSLYWDSGDSLNPDKTGHYNFYNFDAVNNTLTIQSQWLGYQTTQNINFINILGVPKLPTSFKLNGHVSDPRIIRFNYDEQTNILTVETKLPIYNQDSSSHDRIHYQFEWIME
B3: A011: house dust mite protein; SEQ ID NO: 39 (Der f), 40 (Der p), 309 (Blo t) (protein)
chain: KSAPEGCFRAAVLDHVHQTDARHLSNTAKIIDLNFKVYEDAAALAKKQGADIIVFPENGLIYSILSREKADEFASDIPDAEVNACTLDSKFVYNRLACLAQKHQMFVVADLIDRKSCEELGINNVSDSCPADKKFLFNTAVLFDRQGKLLGRYHKMHLFGEISMNPPPKPELLVIDTELGRLGMQICFDMIFKTPGYLLAQENKFDTMLFPTWWFDESPMLSSSQYQMAWAFGNNVTLLASNIHRIEVGSRGSGIYVGPHRTLAAALYDDSVERLVLANVPIKPKETDQSACPLDSEIIEVPQQIPIPKSVKYHHQNLNLKDVTLLQLSSNESEVHLCHKGVCCQFEYRLAMKDQPQESWVDRVPLLANMLHYLTPEERYYLLIANRTRPGAYPWSEEFCAVVVCPSSRWNFGKMQKDCSKIGSNQELSSRFVHAKLRGKFSEDTAVYPSAVGSKNQLIYPENKWKFWKVNVPNEPEYFIELGAKDNSESRAMELGALVLYGRNYNRDPRYEQKALPIN

system: basophils in whole blood from HDM allergic donors; experiment: Basophil Activation Test (BAT); format: cell-based, human; conditions: 1 ng/ml; blood from HDM allergic individuals (n=14)
Procedure: Basophil Activation Test (BAT) was used as a predictive in vitro assay for indication of safety/immediate hypersensitivity reactions. The BAT assay is a widely used diagnostic test that is also used for evaluation of allergenicity of allergen derived components. In short: whole blood from HDM allergic donors was stimulated for 1 h with the proteins, and the increased expression of activation markers on the surface of basophils were measured by flow cytometry. The BAT test was carried out using different concentrations of the proteins and the allergens Der p 2 and Der p 1 was used as controls and tested in the same concentration rates.
(§1) This example relates to the further testing of immunogenicity of the proteins identified in Example 1. Their ability to react with IgE antibodies in HDM allergic individuals, to stimulate in vitro T cell proliferation of HDM allergic individuals and non-allergics, and to stimulate ex vivo cytokine production of HDM allergic individuals and non-allergics. The following tests were used: • Basophil Activation Test (BAT) was used as a predictive in vitro assay for indication of safety/immediate hypersensitivity reactions. BAT test was carried out using blood from HDM allergic individuals (n=14), and by use of different concentrations of test proteins or the major house dust mite allergens (Der p 1, Der f 1, Der p 2 or Der f 2, e.g. a concentration of 1, 10, 100 or 1000 ng/ml. • In vitro T cell reactivity determined in T cell lines obtained from HDM allergic individuals (n=30) and non-allergics (n=8): Determined by establishment of HDM specific T-cell lines according to standard methods. In short, PMBCs from HDM allergic donors were cultured for 3 weeks in the presence of house dust mite allergen extract. The responses to proteins at a concentration of 0.5 ug/ml or 2 ug/ml of the test protein or the major house dust mite allergens (Der p 1, Der f 1, Der p 2 or Der f 2) were assessed by proliferation in a standard 72 h T cell proliferation assay, as described in Henmar H et al., Clin Exp Immunol 2008; 153(3):316-23. […]. • Ex vivo stimulation of PBMC cells obtained from mite allergic patients (n=16) and non-allergics (n=6): Determined by measuring the production of the cytokines; IFN-gamma, IL-9, IL-10, IL-17 and IL-31 following stimulation with test protein in concentration up to 10 ug/ml. Freshly isolated PBMC 5×10^6/ml were cultured with a test protein for 5 days and cell supernatant were harvested and stored at −80° C. Cytokines of the supernatants were measured using ProcartaPlex Multiplex Immunoassays with MAGPIX Multiplex Reader according manufactory protocol.

Molecule	# of individuals of 14 with positive BAT test
B1	0
B2	0
B3	0

same assay, conditions: 10 ng/ml; blood from HDM allergic individuals (n=14)

Molecule	# of individuals of 14 with positive BAT test
B1	0
B2	0
B3	0

same assay, conditions: 100 ng/ml; blood from HDM allergic individuals (n=14)

Molecule	# of individuals of 14 with positive BAT test
B1	0
B2	0
B3	0

same assay, conditions: 1000 ng/ml; blood from HDM allergic individuals (n=14)

Molecule	# of individuals of 14 with positive BAT test
B1	3
B2	1
B3	1

system: T cell lines obtained from HDM allergic individuals and non-allergics; experiment: In vitro T cell proliferation test in T cell lines (Example 3); format: cell-based, human; conditions: T cell lines from HDM allergic individuals (n=30); 0.5 or 2 ug/ml; 72 h
Source text: as §1

Molecule	% responders of in-vitro T cell proliferation test, Allergic
B1	36%
B2	100* %
B3	64%

same assay, conditions: T cell lines from non-allergics (n=8); 0.5 or 2 ug/ml; 72 h

Molecule	% responders of in-vitro T cell proliferation test, Non-allergics [%]
B1	63
B2	14
B3	13

system: PBMC cells obtained from mite allergic patients and non-allergics; experiment: Ex vivo stimulation of PBMC: cytokine production (IFN-gamma, IL-9, IL-10, IL-17, IL-31); format: cell-based, human; conditions: HDM allergic individuals; IL-5
Source text: as §1

Molecule	% HDM allergic individuals with cytokine production in ex-vivo T cell assay IL-5 [%]
B1	0
B2	31
B3	25

same assay, conditions: HDM allergic individuals; IL-9

Molecule	% HDM allergic individuals with cytokine production in ex-vivo T cell assay IL-9 [%]
B1	0
B2	13
B3	6

same assay, conditions: HDM allergic individuals; IL-10

Molecule	% HDM allergic individuals with cytokine production in ex-vivo T cell assay IL-10 [%]
B1	94
B2	38
B3	13

same assay, conditions: HDM allergic individuals; IL-13

Molecule	% HDM allergic individuals with cytokine production in ex-vivo T cell assay IL-13 [%]
B1	6
B2	44
B3	19

same assay, conditions: HDM allergic individuals; IL-17

Molecule	% HDM allergic individuals with cytokine production in ex-vivo T cell assay IL-17 [%]
B1	19
B2	13
B3	6

same assay, conditions: HDM allergic individuals; IL-31

Molecule	% HDM allergic individuals with cytokine production in ex-vivo T cell assay IL-31 [%]
B1	0
B2	6
B3	6

same assay, conditions: HDM allergic individuals; INF-g

Molecule	% HDM allergic individuals with cytokine production in ex-vivo T cell assay INF-g [%]
B1	19
B2	0
B3	0

same assay, conditions: non-allergic individuals; IL-5

Molecule	% non-allergic individuals with cytokine production in ex-vivo T cell assay IL-5 [%]
B1	0
B2	0
B3	0

same assay, conditions: non-allergic individuals; IL-9

Molecule	% non-allergic individuals with cytokine production in ex-vivo T cell assay IL-9 [%]
B1	0
B2	0
B3	0

same assay, conditions: non-allergic individuals; IL-10

Molecule	% non-allergic individuals with cytokine production in ex-vivo T cell assay IL-10 [%]
B1	100
B2	0
B3	0

same assay, conditions: non-allergic individuals; IL-13

Molecule	% non-allergic individuals with cytokine production in ex-vivo T cell assay IL-13 [%]
B1	0
B2	0
B3	0

same assay, conditions: non-allergic individuals; IL-17

Molecule	% non-allergic individuals with cytokine production in ex-vivo T cell assay IL-17 [%]
B1	33
B2	0
B3	0

same assay, conditions: non-allergic individuals; IL-31

Molecule	% non-allergic individuals with cytokine production in ex-vivo T cell assay IL-31 [%]
B1	0
B2	0
B3	0

same assay, conditions: non-allergic individuals; INF-g

Molecule	% non-allergic individuals with cytokine production in ex-vivo T cell assay INF-g [%]
B1	50
B2	0
B3	17

— US10556936B2, “Immunogenic proteins and fragments thereof from allergenic mites” (ALK-ABELLÓ A/S, priority 2016, dated 2020)
